Results reported in patent US20190276551A1.

Biological target: human CD38 protein immobilised on AR2G biosensor (human) (UniProt P28907)
Assay: Octet BLI, immobilised CD38

koff: 0.0044 s⁻¹
Substance: Daratumumab scFv
